B1: EID2 WT peptide (aa 197-217) [modified: biotin, linked via the SGSG spacer; biotin, linked via the SGSG spacer] [human] / His-S-MAGEC2(129-339) [human] (parent complex)
chain 1: QRNPHRVDLDILTFTIALTAS
chain 2: GLPDSESSFTYTLDEKVAELVEFLLLKYEAEEPVTEAEMLMIVIKYKDYFPVILKRAREFMELLFGLALIEVGPDHFCVFANTVGLTDEGSDDEGMPENSLLIIILSVIFIKGNCASEEVIWEVLNAVGVYAGREHFVYGEPRELLTKVWVQGHYLEYREVPHSSPPYYEFLWGPRAHSESIKKKVLEFLAKLNNTVPSSFPSWYKDALKD

Variants of: B1
Test: PEPSCAN-ELISA; parent: 100; read off a plot

| percent of parent [%] | Variant |
| --- | --- |
| ~46 | chain 1 T13A |
| ~58 | chain 1 N3A |
| ~34 | chain 1 V7A |
| ~86 | chain 1 D8A |
| ~67 | chain 1 T15A |
| ~45 | chain 1 P4A |
| ~38 | chain 1 H5A |
